Consider two molecules from patent publication US7238857, “Ethylene-responsive transcription coactivators in plants” (Japan and Science and Technology Agency).

In data set [1] the target is T1, ERF2 (Nicotiana tabacum, UniProt Q40479 Q40479:1-233). In words: competition; 10 ng unlabeled mERE did not inhibit ERF2-ERE complex. Particulars: tags: His tag (pET15b, Novagen); GATC 5' overhangs. The text has this: The binding activity of ERF2 to ERE was investigated using gel-shift assays. The DNA fragment containing a 53 bp wild-type ethylene-responsive element (ERE) was used as a DNA probe after labeled with a radioactive tracer using (γ^-32P)ATP and T4-polynucleotide kinase (Takara Bio INC., Kyoto, Japan). Multi-copied and linked ERE (SEQ ID NO: 3 and 4) or mERE (SEQ ID NO: 5 and 6) fragments (FIG. 1) were used as wild-type and mutant-type competitors, respectively. mERE (mutant-type) was similar to ERE (wild-type), except that the DNA nucleotide sequence in the GCC box contains base substitutions. The mixture of 1 ng of radio-labeled DNA probe (1,000 to 10,000 cpm) and 10 ng of recombinant ERF without or with 10 ng of a competitor DNA in 10 µl of the binding buffer shown in Table 1 was incubated for 45 minutes at 25° C.
T1 sequence (Q40479 whole entry, the tested form may be a part, one chain of several): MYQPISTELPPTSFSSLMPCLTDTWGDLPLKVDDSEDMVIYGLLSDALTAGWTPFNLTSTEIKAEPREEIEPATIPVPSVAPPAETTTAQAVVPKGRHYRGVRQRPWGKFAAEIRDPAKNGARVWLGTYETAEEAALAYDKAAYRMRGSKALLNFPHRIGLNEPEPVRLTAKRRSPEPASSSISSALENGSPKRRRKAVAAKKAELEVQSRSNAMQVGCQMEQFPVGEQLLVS
The samples after binding reaction were subjected to 4% polyacrylamide gel electrophoresis (acrylamide:bisacrylamide=39:1, 1 mm in thickness, 13 cm long) containing 0.25×TB buffer (22.5 mM Tris-borate, pH 8.0) at 25° C. for 3 hrs at 100 V. The gel was dried and exposed to Fuji Imaging Plate® (Fuji Photo Film Co. Ltd., Kanagawa, JAPAN; a radiosensitive layer of phosphor crystals on a polyester backing plate). The electrophoresis mobility pattern was visualized using Bio-Image Analyzer (Fuji Photo Film Co. Ltd., Kanagawa, JAPAN). […]

The target of data set [2] is T1, ERF2. The data set can be described thus: in vitro transcription activation of pERE in HeLa nuclear extract with tTBP. The conditions noted are these: tags: His tag (pET15b, Novagen); label: 32P 5' end; GATC 5' overhangs. The procedure: (§1) Moreover, the in vitro transcription reaction was assayed in the following way. The HeLa nuclear extracts used for the in vitro transcription were prepared as reported previously (Meth. Enzymol. 101:582–598(1983)).
The transcription reaction mixture was incubated for 60 min at 30° C. and 75 µl of the reaction stopping solution (Table 2) was added to stop the reaction. Then, 100 µl of PCIAA (50% phenol, 48% chloroform, 2% isoamilalcohol) was added to the reaction mixture to recover the aqueous phase. After that, 100 µl of CIAA (96% chloroform, 4% isoamilalcohol) was added to the aqueous phase and the aqueous phase was recovered. Then, 10 µl of 3 M sodium acetate and 300 µl of ethyl alcohol were added to the aqueous phase to precipitate nucleic acid. The nucleic acid was dried and was dissolved in 10 µl of urea solution (5M urea, 1 mM EDTA, 0.1% bromophenol blue). The nucleic acid sample was subjected to electrophoresis using 6% polyacrylamide gel (acrylamide:bisacrylamide=19:1, 1 mm of thickness, 12.5 cm long) containing 89 mM Tris-borate (pH 8.3), 2 mM EDTA and 8 M urea at 300 V. When bromophenol blue in the sample had migrated to the lowest edge of the gel, the gel was removed and was soaked in 1 L of water containing 5% methanol and 5% acetic acid and then in 1 L of water containing 5% methanol, each for 20 min. […]

In data set [3] the target is ERF1 (Nicotiana tabacum, UniProt Q40476 Q40476:1-236). The data set can be described thus: in vitro transcription activation of pERE in HeLa nuclear extract. The conditions noted are these: tags: His tag (pET15b, Novagen); label: 32P 5' end; GATC 5' overhangs. The protocol: as §1
Sequence of ERF1 (Q40476 whole entry, one chain of several): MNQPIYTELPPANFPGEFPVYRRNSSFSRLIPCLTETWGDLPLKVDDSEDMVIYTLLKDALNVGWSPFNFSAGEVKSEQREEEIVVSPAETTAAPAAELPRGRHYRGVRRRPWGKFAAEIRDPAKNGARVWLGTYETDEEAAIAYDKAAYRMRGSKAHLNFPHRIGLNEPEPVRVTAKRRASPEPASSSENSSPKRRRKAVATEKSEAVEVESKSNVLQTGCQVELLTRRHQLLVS
(§2) The transcription reaction mixture was incubated for 60 min at 30° C. and 75 µl of the reaction stopping solution (Table 2) was added to stop the reaction. Then, 100 µl of PCIAA (50% phenol, 48% chloroform, 2% isoamilalcohol) was added to the reaction mixture to recover the aqueous phase. After that, 100 µl of CIAA (96% chloroform, 4% isoamilalcohol) was added to the aqueous phase and the aqueous phase was recovered. Then, 10 µl of 3 M sodium acetate and 300 µl of ethyl alcohol were added to the aqueous phase to precipitate nucleic acid. The nucleic acid was dried and was dissolved in 10 µl of urea solution (5M urea, 1 mM EDTA, 0.1% bromophenol blue). The nucleic acid sample was subjected to electrophoresis using 6% polyacrylamide gel (acrylamide:bisacrylamide=19:1, 1 mm of thickness, 12.5 cm long) containing 89 mM Tris-borate (pH 8.3), 2 mM EDTA and 8 M urea at 300 V. When bromophenol blue in the sample had migrated to the lowest edge of the gel, the gel was removed and was soaked in 1 L of water containing 5% methanol and 5% acetic acid and then in 1 L of water containing 5% methanol, each for 20 min. Then, the gel was attached to a filter paper, dried and exposed to Fuji Imaging Plate overnight. RNA was visualized using Bio Image Analyzer.
(§3) As in the case of reference example 2, the inventors examined the activity of transcriptional activation of other ERFs. […] The activity of transcriptional activation of each ERF was as follows; amplification by ERF3, 3 fold; that by ERF4, 3.5 fold; that by ERF1, 4 fold; that by ERF2, 5 fold.

The target in data set [4] is ERF4 (Nicotiana tabacum, UniProt Q40478 Q40478:1-291). The data set is described as above. Particulars: tags: His tag (pET15b, Novagen); label: 32P 5' end; GATC 5' overhangs. The protocol: as §1, §2, §3
Sequence of ERF4 (Q40478 whole entry, one chain of several): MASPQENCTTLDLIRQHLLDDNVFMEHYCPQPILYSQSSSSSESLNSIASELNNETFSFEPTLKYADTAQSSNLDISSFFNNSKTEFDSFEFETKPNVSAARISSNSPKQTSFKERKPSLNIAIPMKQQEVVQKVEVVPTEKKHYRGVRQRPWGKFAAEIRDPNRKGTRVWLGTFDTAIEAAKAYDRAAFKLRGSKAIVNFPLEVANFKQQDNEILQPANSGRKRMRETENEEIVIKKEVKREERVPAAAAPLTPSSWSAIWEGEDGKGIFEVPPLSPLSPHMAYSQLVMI
Data set [5] has as its target ERF3 (Nicotiana tabacum, UniProt Q40477 Q40477:1-225). The data set is described as above. Particulars: tags: His tag (pET15b, Novagen); label: 32P 5' end; GATC 5' overhangs. The protocol: as §1, §2, §3

Sequence of ERF3 (Q40477 whole entry, one chain of several): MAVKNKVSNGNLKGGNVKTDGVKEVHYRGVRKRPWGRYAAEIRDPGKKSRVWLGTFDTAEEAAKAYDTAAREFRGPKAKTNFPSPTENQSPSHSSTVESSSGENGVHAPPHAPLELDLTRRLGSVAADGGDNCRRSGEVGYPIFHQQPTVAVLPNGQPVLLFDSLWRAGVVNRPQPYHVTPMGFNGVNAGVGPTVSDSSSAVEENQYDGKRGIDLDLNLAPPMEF

B1: mERE (mutant GCC box) (dsDNA)
DNA 1: GATCTCATAAGATCCTCCACTAAAATAAGACCGATCAAATAAGATCCTCCATG
DNA 2: GATCCATGGAGGATCTTATTTGATCGGTCTTATTTTAGTGGAGGATCTTATGA
For B1, the binding result in data set [1] was “no binding”.

B2: ERE (2x GCC box) (dsDNA)
DNA 1: GATCTCATAAGAGCCGCCACTAAAATAAGACCGATCAAATAAGAGCCGCCATG
DNA 2: GATCCATGGCGGCTCTTATTTGATCGGTCTTATTTTAGTGGCGGCTCTTATGA
For B2, the activity in data set [2] came to 5 fold; in data set [3] it was 4 fold; in data set [4] it was 3.5 fold; in data set [5], 3 fold.
